We go through 21 sequences from the supplement of paper PMC9170038.

The subject of the data set is MS2 coat protein. Nature of the data set: apparent KD of MS2 coat protein; designed switch direction (-1 OFF switch, 1 ON switch): -1; higher = weaker reporter binding. Summed up:
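Designed RNA switches sharing common flanks were transcribed on Illumina chips by stalled E. coli RNA polymerase. They were titrated with SNAP-549-labelled MS2 coat protein, from 0.7 or 1.5 nM doubling to 3 µM, in Tris-HCl pH 7.5 buffer with KCl, MgCl2, BSA, DTT, tRNA and Tween-20. Titrations ran without input, with 200 uM small-molecule ligand, or with an oligonucleotide input. The apparent KD of each design is the median over its clusters, after curve-fitting of normalised cluster fluorescence.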

The mark [1] stands for this setting: input ligand: microRNA oligo, concentration not stated.
[2] abbreviates: Eterna round: R95, input ligand: FMN 200 uM.
Where [3] appears, read: Eterna round: R95, input ligand: microRNA oligo, concentration not stated.
Where [4] appears, read: Eterna round: R95, input ligand: none.

As for “GGGCCCGGAGGAUAUACAAUCCCGGGCCGAAAGGUUUGGGUACAUGAGGAUCACCCAUGUAGAAGGCCGGGCCC [-40.9, -38.2 kcal A 24%, 5b bis,0] (Eterna round: R97, puzzle: Exclusion 2)”, the “apparent KD of MS2 coat protein” value turned out to be 29.1 nM (input ligand: FMN 200 uM) and 17.9 nM (input ligand: none).
Consider “GGGCCCGGAGGAUAUACAAUGGGUUUGGGAAACCGGGCCCUACAUGAGGAUCACCCAUGUAGAAGGCCGGGCCC [-41, -38.9 kcal A 24%, 5b,0] (Eterna round: R97, puzzle: Exclusion 2)”, for which the “apparent KD of MS2 coat protein” value (input ligand: FMN 200 uM) stood at 39.9 nM and the “apparent KD of MS2 coat protein” value (input ligand: none) is 34.2 nM.
Turning to “GGGCCCGGUGUGAGGAUAUGCCCGGGUAAACCCGGGUAGAAGGCACAUGAGGAUCACCCAUGUAAGCCGGGCCC [-43, -40.9 kcal, A 23%, 5cbis-0] (Eterna round: R97, puzzle: Brourd's mod of Exclusion 4)”, the “apparent KD of MS2 coat protein” value (input ligand: FMN 200 uM) is 12.8 nM and the “apparent KD of MS2 coat protein” value (input ligand: none) stood at 17.7 nM.
Consider “GGGCCUGGUGUAGGAUAUCGUGGGCGGUGUCGGCGAGAAGGACAUGAGGAUCACCCAUGUCCGGGCUCGGGUUCCCGGGCUUGG [second try -37.9 kcal and 14% A] (Eterna round: R96, puzzle: Exclusion NG 1)”, for which the “apparent KD of MS2 coat protein” value worked out at 28.5 nM (input ligand: FMN 200 uM), 13 nM under setting [1] and 15.4 nM (input ligand: none).
Take “GGGCGGCGGACCGUGGCUUUUUGCUCGUCUUGUGCUUCGACAUGAGGAUCACCCAUGUGGUGGUGGUCCGUUGUGGG [Grok-var2-14 mod JAL] (puzzle: Sensor v3, turn-off variant 2)”: the “apparent KD of MS2 coat protein” value is 18.2 nM under setting [2], 12.6 nM under setting [3] and 14.7 nM under setting [4].
As for “GGGCGUGAAGGAUAUACAUGAGGAUCACCCAUGUGGGAGGAGAAUGGUGAGGAGGCUGGUAGAAGGUCAGGAGG [JR_Exclusion3_Sub009] (puzzle: Exclusion 3)”, the “apparent KD of MS2 coat protein” value under setting [3] amounted to 37.5 nM.
Consider “GGGUACAAGCUAAGAUCCUACAUGAGGAUCACCCAUGUGGUCCGGUGACGUGAGUCACCGGACUUAGCUCGUCUUGU [salish99_S_TOV1_R5_003] (Eterna round: R97, puzzle: Sensor, turn-off variant 1)”, for which the “apparent KD of MS2 coat protein” value (input ligand: FMN 200 uM) was determined as 59.3 nM and the “apparent KD of MS2 coat protein” value (input ligand: none) worked out at 61.3 nM.
For “GGGUGACAUGAGGAUCACCCAUGUCAGGAUAUGAUUCUGCUUGCGAAAGCGAGUAGAAUCAGAAGGGACAUCCC (Eterna round: R97, puzzle: Exclusion 1)”, the “apparent KD of MS2 coat protein” value (input ligand: FMN 200 uM) is 293 nM and the “apparent KD of MS2 coat protein” value (input ligand: none) was found to be 65.2 nM.
Take “GGGUGCAGGCUGAGGUCCUACAUGAGGAUCACCCAUGUGGUCCGGUGACGUGGGUCGCCGGACUUGGCUCGUCUUGU [salish99_S_TOV1_R5_012] (Eterna round: R97, puzzle: Sensor, turn-off variant 1)”: the “apparent KD of MS2 coat protein” value (input ligand: FMN 200 uM) stood at 39 nM and the “apparent KD of MS2 coat protein” value (input ligand: none) is 48.6 nM.
The corresponding values for “GGGUGUGCUAAGGAUAUCGGACCAUCGGGUAACUGAGAAGGUAGCACAUGAGGAUCACCCAUGUGUAACUUGAU [EX6 B.12] (Eterna round: R97, puzzle: Exclusion 6)” are 159 nM and 16 nM.
Take “GGUACUAACACGAAAGUGUUAGUACUAUAAGCUUGUGUUACAUGAGGAUCACCCAUGUCCUCAUAAGCUCGUCUUGU [JL-sv3-2.19 mat747 mod] (puzzle: Sensor v3, turn-off variant 2)”: the “apparent KD of MS2 coat protein” value runs as follows: under setting [2], 45.4 nM; under setting [3], 44.2 nM; under setting [4], 44.9 nM.
The matching figures for “GGUACUAACACGAUAGUGUUAGUACUAUAAGCUUGUGUUACAUGAGGAUCACCCAUGUCCUCAUAAGCUCGUCUUAU [Mat - Sensor v3 - Turn-off var 2 - D77] (puzzle: Sensor v3, turn-off variant 2)”: 95.9 nM, 50.2 nM and 98.6 nM.
In the case of “GGUACUAACACGAUAGUGUUAGUACUAUAAGCUUGUGUUACAUGAGGAUCACCCAUGUCCUCAUAGGCUCGUCUUAG [Mat - Sensor v3 - Turn-off var 2 - D85] (puzzle: Sensor v3, turn-off variant 2)”, the “apparent KD of MS2 coat protein” value runs as follows: under setting [2], 87.1 nM; under setting [3], 23.1 nM; under setting [4], 106 nM.
“GGUACUCAAAGAGUACCAAUACGAACAUGAGGAUCACCCAUGUAGGAUAUGCUACUCAAAGAGUAGCAGAAGGACAUGUGCCUU [Far Half Aptamer v5] (Eterna round: R96, puzzle: Exclusion NG 3)”: the “apparent KD of MS2 coat protein” value was determined as 254 nM (input ligand: FMN 200 uM), 25.3 nM under setting [1] and 29.5 nM (input ligand: none).
The matching figures for “GGUACUCAAAGAGUACCAAUACGAACAUGAGGAUCACCCAUGUAGGAUAUGCUACUCAAAGAGUAGCAGAAGGAUAUGAUGAAU [Far Half Aptamer v16] (Eterna round: R96, puzzle: Exclusion NG 3)”: 41.1 nM, 30.8 nM and 40.2 nM.
The corresponding values for “GGUAGAGUGGUAGGAUAUCCGUCUGUUUCAGUCGGAGAAGGACCACAGUCACUGGGUCCUAAUAUGGGUGACCAUGUAUCUACC [pwkr exNG1 F6.11] (Eterna round: R96, puzzle: Exclusion NG 1)” are 1340 nM, 279 nM and 348 nM.
For the sequence “GGUAGUAUGAGUAGUCCUCAUUGAAGAGAUUGGUAAGAUACAUGAGGAUCACCCAUGUUUGAACAAGCUUUUGCUCA [JR_Sv3TOV2_Sub006] (puzzle: Sensor v3, turn-off variant 2)”, the “apparent KD of MS2 coat protein” value under setting [2] is 141 nM, the “apparent KD of MS2 coat protein” value under setting [3] turned out to be 53 nM and the “apparent KD of MS2 coat protein” value under setting [4] stood at 298 nM.
The matching figures for “GGUAGUAUGAGUAGUCCUCAUUGAAGAGAUUGGUAAGAUACAUGAGGAUCACCCAUGUUUGAACAAGCUUUUGCUCU [JR_Sv3TOV2_Sub007] (puzzle: Sensor v3, turn-off variant 2)”: 87.1 nM, 25.9 nM and 82.8 nM.
For the sequence “GGUAUAUGAGGAUAUAGAUUCCUCGACAUGAGGAUCACCCAUGUAAGAUUGGGCCUAGAACUAGAAGGCGUGGCUU [Eternabot (L1) Solution 77] (Eterna round: R97, puzzle: Exclusion 5)”, the “apparent KD of MS2 coat protein” value by setting is: (input ligand: FMN 200 uM) 72.1 nM; (input ligand: none) 128 nM.
Regarding “GGUCAAGAACAGAUCCGCGCUGCCAUUGACCGCUCAUUUACAUGAGGAUCACCCAUGUUUUUUGCUCGUCUUACUAC [Edesso] (puzzle: Sensor v3, turn-off variant 2)”, the “apparent KD of MS2 coat protein” value is 20.8 nM under setting [2], 61.4 nM under setting [3] and 19.3 nM under setting [4].
The corresponding values for “GGUCAAGAACAGAUCCGCGCUGCCCUCGACCGCUCAUUUACAUGAGGAUCACCCAUGUUUUUUGCUUGUCUUGUUAC [Vezageis] (puzzle: Sensor v3, turn-off variant 2)” are 17.2 nM, 57 nM and 17.1 nM.
